Tested on: MS2 coat protein
Assay: apparent KD of MS2 coat protein; higher = weaker reporter binding
Conditions: Eterna round: R107
Method in brief: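 The designed RNA switches were transcribed on-chip from Illumina sequencing clusters. In 100 mM Tris-HCl pH 7.5, 80 mM KCl and 4 mM MgCl2, without or with constant ligand, they were titrated with SNAP-549-labelled MS2 coat protein from 0.7 or 1.5 nM to 3 µM in twofold steps. Apparent KD is the per-design median of normalised cluster binding-curve fits.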

[1] = input ligand: theophylline 20 uM
[2] = input ligand: theophylline 2 mM
[3] = input ligand: tryptophan 2.4 mM

Row | Sequence | apparent KD of MS2 coat protein (input ligand: arginine 13.2 mM) [nM] | apparent KD of MS2 coat protein (input ligand: none) [nM] | apparent KD of MS2 coat protein [1] [nM] | apparent KD of MS2 coat protein [2] [nM] | apparent KD of MS2 coat protein [3] [nM]
1 | GGGCUGUGACCAGGAAAUGGUCACAGCCCACGAGGACCGGUACGGCCGCCACUCGAAAGUACAUGAGGAUCACCCAUGUCGGUGG [#1 Same State - Tryptophan A Attempt #8 (HarryS)] | 25.9 | 34.1 | 30.6 | 37.9 | 50.9
2 | GGGUACAUCGCGGCCGCCACUCGUGUAAAUACAUGAGGAUCACCCAUGUCGAUGGAGACAUCGGAGAGGACCGGGUGAUGUACCG | 110 | 81 | 114 | 81.5 | 46.7
3 | GGUAUGUAUUCGGAAACGAAUGCAUACCAUCGAGGACCGGUACGGCCGCCACUCGUGGCUGAUCAACAUGAGGAUCACCCAUGUA [Ex Tryptophan A 1] | 36.1 | 85.9 | 94.3 | 83.4 | 50.4
4 | GGUCGCCUACAUGGGUAGGCGAUUUUGGAAGGAGCGAGCGAGAGCUCAGGUAGGUCGCCAGCACAUGAGGAUCACCCAUGUUUUU [SSArg-A #25 Weakened 1st state] | 20.8 | 16.1 | 20.9 | 21.8 | 18.7
5 | GGUGGCGGGACUGAUACCAGCCACCACCGAUAGACCACAUGAGGAUCACCCAUGUUGGGUGGCCCUUGGCAGCAGUCUUGCGGCU [#1 Same State - Theophylline B Attempt #14 (HarryS)] | 46.8 | 797 | 523 | 163 | 739
6 | GGUGGCGGGACUGAUACCAGCCACCACCGAUAGACCACAUGAGGAUCACCCAUGUUGGGUGGCCCUUGGCAGCAGUCUUGCGUCG [#1 Same State - Theophylline B Attempt #16 (HarryS)] | 35.9 | 149 | 92.9 | 21 | 323
7 | GGUGGCGUGACGGAUACCAGCCACCACCGCAAGGCCACAUGAGGAUCACCCAUGUUGGGUGGCCCUUGGCAGCUGUCGUGCGGCG [#1 Same State - Theophylline B Attempt #20 (HarryS)] | 451 | 263 | 324 | 431 | 341
8 | GGUGGCGUGACGGAUACCAGCCACCGCCGCAAGGCCACAUGAGGAUCACCCAUGUUGGGUGGCCCUUGGCAGCUGUCGUGCGGCG [#1 Same State - Theophylline B Attempt #21 (HarryS)] | 121 |  | 464 |  | 378
9 | GGUUACUCUACGGCCGCCACUGUAAUGUAAAGAUACCUGUACAUGACAUGAGGAUCACCCAUGUGCAGGACCGGGUAGUGUAACC [Tryptophan B 19] | 50.6 | 61.6 | 93.6 | 70 | 19.8
10 | GUACAUGAGGAUCACCCAUGUAUAGUUGAAGGAGCGACCGGUGGGUCAGGUAGGUCGCAGCGCAUGGCGUCCACGCGUGUAUGCC [#1 Exclusion - Arginine A Attempt #29 (Inspired by Pi)] | 10.3 | 12.3 | 17.1 | 11.1 | 11.9
11 | GUACCGUAAACGGCCGCCACUGACAUGAGGAUCACCCAUGUGCUGGUGGUGCACAACCUCAGGUUCAGGACCGGGUUUCCGAGCU [theeternabot_exclusion_MS2_Trp_B_50] | 23 |  | 45.3 | 32.2 | 
12 | GUAGCUAUCGCGGCCGCCACUAAACCGGAAACGGAACAGUAGGAUCACCAUUGUGGCGAAAGCCAUAGGACCGGGCGAUAGCUAC [TryBS - Double Magnet system 2] | 601 | 502 | 830 | 1210 | 80
13 | GUAUGGAAACAUACUUGGGUAUCAUGAGAUACCAGUACAGAAAUGUACCCUUGGCAGCUCAAGCAUACAUGAGGAUCACCCAUGU [Ex Theophylline A 8] | 22.5 |  | 22.5 |  | 15.4
14 | GUCCUCAUGACGGCCGCCACUACACAUGAGGAUCACCCAUGUAAUGAUCCCUUAAAUGAUAAUAGUAGGACCGGGUCACUGUAAG [Same State Typptophan B GF12] | 119 |  | 569 | 743 | 
15 | GUCUCUGAGAGAAGGAGCGUGAAGACAUGAGGAUCACCCAUGUAGAGGCGCCGAAGGCGUUCGCAGGUAGGUCGCUCUCAGAGAC [#1 Same State - Arginine B Attempt #20 (HarryS)] | 15.2 | 15.5 | 23.8 | 17.5 | 18.4
16 | GUGCGGUUUGAUGAUACCAGAUGUGGUGGGAACAUGAGGAUCACCCAUGUUGUGAAACAGGUCCCUUGGCAGCAUGAGUGAGCUU [TheoB-ms2@32-1] | 97.3 | 103 | 255 | 290 | 55.5
17 | GUUGGAUUUUCGGCCGCCACUGAGAGAGUCAUGUGAACAUGAGGAUCACCCAUGUAAUAUAUAUACAGGACCGGGAGGGUUGUAA [4.L] | 35 | 14.6 | 26.3 | 18.6 | 13.5
18 | GUUUAAAGGUCGGCCGCCACUGUAGGAUGUGUUCUUUCACAUGAGGAUCACCCAUGUUGUUAUUAUAGGACCGGGAUUUUAGGAC [39MS split4] | 25.8 |  | 33.1 | 27.4 | 
19 | UAAACACAUGAGGAUCACCCAUGUCAUGAUACCAGUCAACAUGAGGACCCUUGGCAGCAUAAAAUGGGUAACAUGAGGAUCACCC [AstrosEXyTheA#2] | 46.2 |  | 78.4 |  | 51.5

Row | Sequence | apparent KD of MS2 coat protein (input ligand: arginine 13.2 mM) [nM] | apparent KD of MS2 coat protein (input ligand: none) [nM] | apparent KD of MS2 coat protein [1] [nM] | apparent KD of MS2 coat protein [2] [nM] | apparent KD of MS2 coat protein [3] [nM]
20 | UAAACAUGAGGAUCACCCAUGUUGGAUGAAGGAGCGACCAGAGGGUCAGGUAGGUCGCAUCACAUGAGGAUCACCCAUGUCAUUU [DOUBLE!!! :-D #12] | 59.1 | 108 | 114 | 147 | 97.7
21 | UAACAUGAGGAUCACCCAUGUAUAGUCGAUACCAGCUCAAGGAAGAGCCCUUGGCAGCGACACUGCCAAGCAUGGGUCAUGGCAG [(Ms2)-(Theo)-(T)'-(M)'-(T)''_Design5] | 20.7 |  | 31.9 |  | 19.5
22 | UAAUAAUCCAGGGUGUAGGUAAUAACAGAUACCAGCCAGAUAACUGGCCCUUGGCAGCUGAAAACCUGAGGAUCACCCAGGUAAA [TheoAS 23 #OpenEnded #MS2Late #AlternativeMS2] | 36.4 | 56.2 | 122 | 67.7 | 62.6
23 | UAAUGCAGGUCGGCCGCCACUACACACAUGAGGAUCACCCAUGUAGUUACUGGGUGAAGUGGCAGUAGGACCGGGACCUGCAUAC [Brourdmod04] | 165 |  | 578 | 833 | 
24 | UAGACGGCCGGAAGGAGCGGUACAUGAGGAUCACCCAUGUAUCCCUGGGCAUCCGUAGUGUGCCAGGUAGGUCGCCGGUUGCGGG [XArg-B21] | 15.3 | 15.5 | 25.2 | 18.2 | 15.9
25 | UAUAUAGAAGGAUGUCAUAUAGAUGCAGAAGGAGCGUAGGAAACUACAGGUAGGUCGCUGAGGUACAUGAGGAUCACCCAUGUAG [SSArg A #17 Slice of Pi] | 32.6 | 33.1 | 54 | 45.5 | 26.7
26 | UAUAUAGUGAUGGAUACCAGCAGAGAAAACGUUUAUCCUAACAUGAGGAUCACCCAUGUAUGCCCUUGGCAGCUGUUGUUAUAUA [8.L] | 20.8 |  | 30.1 |  | 21.4
27 | UAUAUAUACUCGGCCGCCACUGAGAGAGUCAUGUAAACAUGAGGAUCACCCAUGUAAUAUAUAUACAGGACCGGGAGUAUAUGAA [4.B] | 11.8 |  | 17.7 | 15.5 | 
28 | UAUAUAUAGGGAAGGAGCGGGAACAUGAGGAUCACCCAUGUACAUGAGGAUCACCCAUGUACCCAGGUAGGUCGCCCAUAUAUAU [Exclusion - Arginine B] | 90.7 | 250 | 227 | 276 | 241
29 | UAUAUAUAUAGGGAUACCAGCAGAGAAAACGUUUAUCCUAACAUGAGGAUCACCCAUGUAUGCCCUUGGCAGCUUUAUAUAUAUA [8.F] | 23.6 |  | 27.6 |  | 24
30 | UAUAUAUAUAUUGAUACCAGCAGAGAAAACGUAUAUCCUAACAUGAGGAUCACCCAUGUAUGCCCUUGGCAGCGAUAUAUAUAUA [8.B] | 21.2 |  | 31 |  | 24.9
31 | UAUCCACAUGAGGAUCACCCAUGUAGGGAAGGAGCGGUGAAUGCACCAGGUAGGUCGCCUUGCUGAGGACAGCCGGUGGAUUCGU [Exclusion - Arginine A (Freestyle 26)] | 16.7 | 12.2 | 19 | 23 | 16
32 | UAUCCACAUGAGGAUCACCCAUGUUAGGAAGGAGCGGUGAGUGCACCAGGUAGGUCGCCUAGCUGAGGACUGUCGGUGGAUUCGU [Exclusion - Arginine A (Freestyle 20)] | 39.7 | 88 | 67.3 | 57.1 | 47.7
33 | UAUGCACAUGAGGAUCACCCAUGUAUGGAAGGAGCGGUGAAUAAACCAGGUAGGUCGCCAUGGUGAGGAUCAUCUAUGUAAUCGU [Exclusion - Arginine A (Freestyle 6)] | 62.3 | 93.2 | 125 | 103 | 87.8
34 | UAUUUUGGGCGCGAGCCCGGGAUAAUUGAUACCAGUGAAGAAGAGCGCCCUUGGCAGCGAAUCCUAACAUGAGGAUCACCCAUGU [5.Q] | 52.5 |  | 65.4 |  | 45.1
35 | UCAUGAGGAUCACCCAUGUGGCGUCUUGAUACCAGACGAGAAGUAGUCCCUUGGCAGCAAAUACAUGAGGAUCACCCAUGUAGGA [cccmullin2] | 24.5 |  | 38.2 |  | 43
36 | UCCUCCUCCGCAAGGAGGAGGAGUUGCGAUACCAGCACGGUAACGUGCCCUUGGCAGCGCACAUGAGGAUCACCCAUGUGGUGUU [#1 Exclusion - Theophylline A Attempt #12 (HarryS)] | 52.7 | 228 | 455 | 379 | 231
37 | UCGCCCGGGUCGGCCGCCACUGAGGUAAUAUGACAUGAGGAUCACCCAUGUUGUCAUGUGGAACAUAGGACCGGGACCCGGGCGA [Exclusion - Tryptophan B Attempt #1 (HarryS)] | 9.15 | 8.61 | 15.1 | 15.2 | 13.4

Reference: the supplement of paper PMC9170038
